Test results published in patent publication US6458590 (US Dept. of Health and Human Services, dated 2002).
Values belong to the binder of their own block, whether it stands above or below them.

Columns and labels:
[1] = target: T1, αvβ3 integrin on human coronary artery smooth muscle cells (CASMCs) (human, UniProt P06756 31-1048; P05106 27-788); assay: 125I-OPN binding to sub-confluent CASMCs, displaced by unlabeled OPN, 37 °C 3 h; Scatchard analysis (LIGAND program)
T1 construct: whole, on cells; Endogenous receptor on sub-confluent cultured human CASMCs (Clonetics); It was identified as the ~300 kD crosslinked band by immunoprecipitation with an αvβ3 integrin antibody; also called approximately 300 kD cell surface protein on CASMCs
T1 sequence (P06756 31-1048, chain 1 of 2): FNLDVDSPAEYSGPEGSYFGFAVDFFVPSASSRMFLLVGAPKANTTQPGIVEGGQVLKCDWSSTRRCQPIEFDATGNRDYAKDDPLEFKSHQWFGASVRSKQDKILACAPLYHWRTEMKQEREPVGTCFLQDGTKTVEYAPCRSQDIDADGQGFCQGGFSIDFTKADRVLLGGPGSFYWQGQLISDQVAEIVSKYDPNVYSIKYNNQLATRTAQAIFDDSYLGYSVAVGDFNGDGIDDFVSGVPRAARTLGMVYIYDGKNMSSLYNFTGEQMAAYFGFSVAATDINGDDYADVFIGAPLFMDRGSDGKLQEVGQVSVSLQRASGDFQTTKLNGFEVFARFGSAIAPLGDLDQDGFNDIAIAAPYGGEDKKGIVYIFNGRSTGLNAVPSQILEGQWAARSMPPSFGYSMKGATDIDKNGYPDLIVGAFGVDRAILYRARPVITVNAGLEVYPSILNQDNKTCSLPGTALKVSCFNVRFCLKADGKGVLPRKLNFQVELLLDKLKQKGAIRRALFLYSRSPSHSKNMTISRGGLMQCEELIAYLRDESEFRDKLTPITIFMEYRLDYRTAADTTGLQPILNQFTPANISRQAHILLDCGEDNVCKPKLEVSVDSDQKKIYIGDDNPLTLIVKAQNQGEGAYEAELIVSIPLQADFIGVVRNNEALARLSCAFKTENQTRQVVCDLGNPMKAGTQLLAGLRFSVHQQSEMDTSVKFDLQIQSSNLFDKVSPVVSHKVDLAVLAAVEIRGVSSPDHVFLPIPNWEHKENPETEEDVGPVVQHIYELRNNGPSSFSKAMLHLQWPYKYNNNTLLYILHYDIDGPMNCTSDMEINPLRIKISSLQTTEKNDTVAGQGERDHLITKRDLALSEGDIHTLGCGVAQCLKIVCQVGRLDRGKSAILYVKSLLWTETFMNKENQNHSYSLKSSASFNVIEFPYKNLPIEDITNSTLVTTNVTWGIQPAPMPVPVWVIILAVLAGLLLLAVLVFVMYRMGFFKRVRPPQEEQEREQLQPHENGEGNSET
T1 sequence (P05106 27-788, chain 2 of 2): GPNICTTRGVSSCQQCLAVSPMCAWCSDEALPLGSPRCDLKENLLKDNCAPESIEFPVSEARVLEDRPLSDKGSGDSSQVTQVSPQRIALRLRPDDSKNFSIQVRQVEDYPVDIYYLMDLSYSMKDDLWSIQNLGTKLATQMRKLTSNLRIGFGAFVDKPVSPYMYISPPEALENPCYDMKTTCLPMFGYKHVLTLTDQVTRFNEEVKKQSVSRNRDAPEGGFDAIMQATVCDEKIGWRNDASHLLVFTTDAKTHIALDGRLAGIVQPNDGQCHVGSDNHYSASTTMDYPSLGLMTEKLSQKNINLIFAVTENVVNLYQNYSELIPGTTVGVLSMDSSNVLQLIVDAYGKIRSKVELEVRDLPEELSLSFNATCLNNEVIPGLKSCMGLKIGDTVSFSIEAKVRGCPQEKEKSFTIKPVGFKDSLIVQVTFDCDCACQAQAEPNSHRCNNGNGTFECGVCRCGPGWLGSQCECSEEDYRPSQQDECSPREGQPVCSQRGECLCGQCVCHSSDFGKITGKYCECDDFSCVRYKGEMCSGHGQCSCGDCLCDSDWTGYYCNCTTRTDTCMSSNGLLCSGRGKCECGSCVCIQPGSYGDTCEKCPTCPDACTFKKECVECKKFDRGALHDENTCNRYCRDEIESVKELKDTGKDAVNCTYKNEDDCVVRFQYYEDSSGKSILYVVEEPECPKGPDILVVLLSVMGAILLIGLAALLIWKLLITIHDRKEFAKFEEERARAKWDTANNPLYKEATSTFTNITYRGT
Experimental: The radioactivity was measured by gamma counter and the specific binding was calculated by subtracting the non-specific binding from the total binding.

[2] = target: T1, αvβ3 integrin on human coronary artery …; assay: competition with 125I-OPN in affinity crosslinking on CASMCs; GRGDS at 1 µM
Experimental: After washing, the cells were incubated with 0.20 mM DSS in 1 ml HBSS, pH 7.6 at 37° C. for 30 min. The cells were scraped, collected by centrifugation and lysed in 40 µl of 1% Triton X-100 solution containing 1 mM PMSF, 20 µg/ml leupeptin and 2 mM EDTA.

Kd [1]: 1 nM
B1: human osteopontin (purified hOPN) (ligand)
chain: not shown
modifications: radioiodinated (125I, Chloramine-T method) when used as tracer; labelled residues not stated; the natural protein is described as a glycosylated phosphoprotein

binding result [2]: binds
Binder: GRGDS (also called GRGDS peptide) [Gly-Arg-Gly-Asp-Ser (GRGDS) oligopeptide]
